Laboratory results reported in paper PMC2926618.
Changes are numbered by the printed parent chain.

Assays:
GST-Kaiso zinc fingers = molecular target: T1, GST-Kaiso zinc fingers (Homo sapiens, UniProt Q86T24 454-638); experiment: EMSA
T1 sequence: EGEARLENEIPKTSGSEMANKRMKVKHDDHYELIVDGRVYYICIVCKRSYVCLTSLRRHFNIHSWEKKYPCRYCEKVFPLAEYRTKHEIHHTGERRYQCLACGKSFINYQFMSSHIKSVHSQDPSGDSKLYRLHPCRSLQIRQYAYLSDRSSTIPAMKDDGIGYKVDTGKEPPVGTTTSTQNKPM

GST-ZBTB38 zinc fingers = molecular target: T2, GST-ZBTB38 zinc fingers (Homo sapiens, UniProt Q8NAP3 418-612); experiment: EMSA
T2 sequence: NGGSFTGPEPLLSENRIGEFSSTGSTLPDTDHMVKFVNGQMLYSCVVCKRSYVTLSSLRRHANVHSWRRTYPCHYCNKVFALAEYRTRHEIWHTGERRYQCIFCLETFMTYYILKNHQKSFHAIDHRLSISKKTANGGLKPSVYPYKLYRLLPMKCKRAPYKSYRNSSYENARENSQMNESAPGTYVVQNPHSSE

GST-ZBTB4 zinc fingers [1] = molecular target: T3, GST-ZBTB4 zinc fingers (Homo sapiens, UniProt Q9P1Z0 268-460); experiment: EMSA
T3 sequence: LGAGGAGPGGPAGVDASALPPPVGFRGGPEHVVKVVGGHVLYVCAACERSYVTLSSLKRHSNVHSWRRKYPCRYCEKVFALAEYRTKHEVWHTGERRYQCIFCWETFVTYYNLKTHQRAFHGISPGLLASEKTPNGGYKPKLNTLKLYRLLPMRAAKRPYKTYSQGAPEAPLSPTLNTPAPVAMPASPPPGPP

GST-ZBTB4 zinc fingers [2] = molecular target: T3, GST-ZBTB4 zinc fingers; experiment: competition
GST-ZBTB4 T376A = molecular target: T4, GST-ZBTB4 T376A (Homo sapiens, UniProt Q9P1Z0 268-460, T376A); experiment: EMSA
T4 sequence: T3 sequence with T109A

GST-Kaiso E535A = molecular target: T5, GST-Kaiso E535A (Homo sapiens, UniProt Q86T24 454-638, E535A); experiment: EMSA
T5 sequence: T1 sequence with E82A

GST-ZBTB4 Y351A = molecular target: T6, GST-ZBTB4 Y351A (Homo sapiens, UniProt Q9P1Z0 268-460, Y351A); experiment: EMSA
T6 sequence: T3 sequence with Y84A

GST-ZBTB4 L348A = molecular target: T7, GST-ZBTB4 L348A (Homo sapiens, UniProt Q9P1Z0 268-460, L348A); experiment: EMSA
T7 sequence: T3 sequence with L81A

GST-ZBTB4 S323A = molecular target: T8, GST-ZBTB4 S323A (Homo sapiens, UniProt Q9P1Z0 268-460, S323A); experiment: EMSA
T8 sequence: T3 sequence with S56A

GST-ZBTB4 K354A = molecular target: T9, GST-ZBTB4 K354A (Homo sapiens, UniProt Q9P1Z0 268-460, K354A); experiment: EMSA
T9 sequence: T3 sequence with K87A

GST-ZBTB4 R326A = molecular target: T10, GST-ZBTB4 R326A (Homo sapiens, UniProt Q9P1Z0 268-460, R326A); experiment: EMSA
T10 sequence: T3 sequence with R59A

GST-ZBTB4 zinc fingers [3] = molecular target: T3, GST-ZBTB4 zinc fingers; experiment: competition; remark: listed apart in the source
GST-ZBTB4 E350A = molecular target: T11, GST-ZBTB4 E350A (Homo sapiens, UniProt Q9P1Z0 268-460, E350A); experiment: EMSA
T11 sequence: T3 sequence with E83A

GST-ZBTB4 zinc fingers [4] = molecular target: T3, GST-ZBTB4 zinc fingers; experiment: EMSA; remark: listed apart in the source

B1: S15 (CCGCCATC) (dsDNA)
DNA 1: ACCCAACCGCCATCTGGGT
DNA 2: ACCCAGATGGCGGTTGGGT
GST-Kaiso zinc fingers
  binding result: binds
GST-ZBTB38 zinc fingers
  binding result: no binding
GST-ZBTB4 zinc fingers [1]
  binding result: binds

B2: MS20 unmethylated (ACGCTTG) (dsDNA)
DNA 1: AAGGCCAACGCTTGTGGT
DNA 2: ACCACAAGCGTTGGCCTT
GST-ZBTB4 zinc fingers [1]
  binding result: no binding

B3: meZ4BS hemimethylated, upper strand (dsDNA)
DNA 1: GTAGAAGTTCCCGCCATCACTATTG
DNA 2: CAATAGTGATGGCGGGAACTTCTAC
modifications: 5mC at strand 1 C12 only
GST-ZBTB4 zinc fingers [2]
  binding result: binds

B4: meZ4BS (CMGCCAT) (dsDNA)
DNA 1: GTAGAAGTTCCCGCCATCACTATTG
DNA 2: CAATAGTGATGGCGGGAACTTCTAC
modifications: 5mC at strand 1 C12 and strand 2 C13
GST-ZBTB4 T376A
  binding result: binds
GST-ZBTB38 zinc fingers
  binding result: binds
GST-Kaiso E535A
  binding result: no binding
GST-ZBTB4 Y351A
  binding result: binds
GST-ZBTB4 L348A
  binding result: binds
GST-ZBTB4 S323A
  binding result: binds
GST-ZBTB4 K354A
  binding result: binds
GST-ZBTB4 R326A
  binding result: no binding
GST-ZBTB4 zinc fingers [3]
  binding result: binds

B5: TG/GC mismatch (dsDNA)
DNA 1: GTAGAAGTTCCTGCCATCACTATTG
DNA 2: CAATAGTGATGGCGGGAACTTCTAC
GST-ZBTB4 E350A
  binding result: binds

B6: MS8 methylated (CCGCTAT) (dsDNA)
DNA 1: ACCCAAACCGCTATCCTT
DNA 2: AAGGATAGCGGTTTGGGT
modifications: 5mC at CpG, both strands (SssI)
GST-ZBTB4 zinc fingers [1]
  binding result: binds

B7: S2 (CTGCCATC) (dsDNA)
DNA 1: ACCCACCTGCCATCTAGGT
DNA 2: ACCTAGATGGCAGGTGGGT
GST-Kaiso zinc fingers
  binding result: binds
GST-ZBTB38 zinc fingers
  binding result: no binding
GST-ZBTB4 zinc fingers [1]
  binding result: binds

B8: Non-selected (dsDNA)
DNA 1: ACCAAGCAACACACCCCGT
DNA 2: ACGGGGTGTGTTGCTTGGT
GST-ZBTB4 zinc fingers [1]
  binding result: no binding

B9: Z4BS (ZBS, CTGCCATC; = TG/AC) (dsDNA)
DNA 1: GTAGAAGTTCCTGCCATCACTATTG
DNA 2: CAATAGTGATGGCAGGAACTTCTAC
GST-ZBTB4 T376A
  binding result: binds
GST-Kaiso E535A
  binding result: binds
GST-ZBTB4 K354A
  binding result: binds
GST-ZBTB4 R326A
  binding result: no binding
GST-ZBTB4 E350A
  binding result: binds
GST-ZBTB4 zinc fingers [4]
  binding result: binds

B10: MS20 methylated (ACGCTTG) (dsDNA)
DNA 1: AAGGCCAACGCTTGTGGT
DNA 2: ACCACAAGCGTTGGCCTT
modifications: 5mC at CpG, both strands (SssI)
GST-ZBTB4 zinc fingers [1]
  binding result: binds
